These results are taken from patent US12721795B2, “Personal dental care product for preventing demineralisation” (CREDENTIS AG, priority 2019, dated 2026).

Series [1] is described as follows: Determination of fibres eluting from matrix (TEM of artificially chewed toffee-saliva). The class given is physicochemical. The settings on record: toffee with assembled P11-4 (35 mg/ml), 3 mL artificial saliva, artificial chew 5 min. On the procedure:
Sample: • Place 1 toffee with or without assembled P11-4 (35 mg/ml) in artificial saliva 3 mL (cf. Example 2) • Artificial chew for 5 min in artificial mastication equipment. • Remove supernatant (saliva) Method TEM • Dilute sample (10 mg/mL) with H2O at a ratio of 1:63 • Place 1 μL of control solution on TEM-grid Sample • Place 20 μL of water on a parafilm • Place gently the TEM Grid with dark site facing upwards on the parafilm, close to the drop • Application of 10 μL sample on TEM carbon coated grids (hexagonal) • 10 min incubation • Remove unbound sample with a paper tissue • Put the grid into 3% Uranylacetate solution 20 ul • 40 sec incubation • Remove unbound Uranylacetate with a paper tissue • Wash the grid 2 times with distilled water • pipet 5 μL droplet on top of the grid and remove it • Dry it for 20 min at RT • Introduce sample into sample holder for TEM • Analyse @ 50 kV, Vacuum at least 9*10-6 hPa

For series [2] the following is noted: cited from earlier work; for pH at which the peptide starts to undergo self-assembly: in solution.

Entries after “also recorded” stand apart in the source; their conditions may differ.

In the case of “QQRFEWEFEQQ (self-assembling peptide P11-4)”, the “assembled fibres of peptide in artificial saliva after mastication (TEM)” value in series [1] is “distinct fibre bundle; also recorded: maintains its assembled form”. In addition, the “pH at which the peptide starts to undergo self-assembly” value in series [2] is “about 7.5”. Moreover, the assembly state entry in series [2] (ionic strength corresponding to 150 mM NaCl, neutral pH (Carrick et al., 2007)) is recorded as “assembled”.
For “terminally modified P11-4: peptide P11-4 that is N-terminally acetylated and C-terminally amidated with a NH2-group (Ac-QQRFEWEFEQQ-NH2)”, in series [2], the “pH at which the peptide starts to undergo self-assembly” value is reported as “about 7.5”.
